From patent US20260284216 (published 2026)
Positions count from the first letter of the chain named. Like-named read-outs stand apart in the source and are kept apart here.

B1: TN01 (antibody, V domains shown)
VH: EVQLVESGGGLVQPGGSLRLSCAASGYVFTDYGMNWVRQAPGKGLEWMGWINTAYGSPDYADSVKGRFTFSLDTSKSTAYLQMNSLRAEDTAVYYCARGYRYYAMDYWGQGTLVTVSS
VL: DIQMTQSPSSLSASVGDRVTITCKASQNVGTNVAWYQQKPGKAPKALIYSASFLYSGVPYRFSGSGSGTDFTLTISSLQPEDFATYYCQQVGDYPLTFGQGTKVEIKR
B2: FN15 (antibody, V domains shown)
VH: B1 VH with A54D, Y55N, S57T, D59Y, Y102S
VL: B1 VL with N28Y, V29T, G30Y, T31N, N32A, V91S, G92Y, D93G, P95L, L96V

Tests used:
Assay in all cases: BLI
[1] = target: TNF-alpha (human)
Chain of TNF-alpha (human) (chain, as listed by the source): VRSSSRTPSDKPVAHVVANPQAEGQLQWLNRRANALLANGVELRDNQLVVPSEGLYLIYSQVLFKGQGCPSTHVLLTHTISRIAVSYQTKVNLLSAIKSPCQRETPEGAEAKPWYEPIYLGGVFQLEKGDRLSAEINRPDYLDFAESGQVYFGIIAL

[2] = target: T1, Trop2 (human, UniProt P09758)
T1 chain: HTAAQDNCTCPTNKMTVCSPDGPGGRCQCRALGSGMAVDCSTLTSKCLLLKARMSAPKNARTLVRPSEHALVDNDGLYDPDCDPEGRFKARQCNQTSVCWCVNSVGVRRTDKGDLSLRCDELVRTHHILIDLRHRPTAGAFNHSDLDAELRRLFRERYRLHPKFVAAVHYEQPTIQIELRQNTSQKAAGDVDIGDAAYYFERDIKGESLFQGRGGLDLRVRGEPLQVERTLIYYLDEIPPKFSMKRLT

[3] = target: T2, FAP (human, UniProt Q12884)
T2 sequence (Q12884 26-760): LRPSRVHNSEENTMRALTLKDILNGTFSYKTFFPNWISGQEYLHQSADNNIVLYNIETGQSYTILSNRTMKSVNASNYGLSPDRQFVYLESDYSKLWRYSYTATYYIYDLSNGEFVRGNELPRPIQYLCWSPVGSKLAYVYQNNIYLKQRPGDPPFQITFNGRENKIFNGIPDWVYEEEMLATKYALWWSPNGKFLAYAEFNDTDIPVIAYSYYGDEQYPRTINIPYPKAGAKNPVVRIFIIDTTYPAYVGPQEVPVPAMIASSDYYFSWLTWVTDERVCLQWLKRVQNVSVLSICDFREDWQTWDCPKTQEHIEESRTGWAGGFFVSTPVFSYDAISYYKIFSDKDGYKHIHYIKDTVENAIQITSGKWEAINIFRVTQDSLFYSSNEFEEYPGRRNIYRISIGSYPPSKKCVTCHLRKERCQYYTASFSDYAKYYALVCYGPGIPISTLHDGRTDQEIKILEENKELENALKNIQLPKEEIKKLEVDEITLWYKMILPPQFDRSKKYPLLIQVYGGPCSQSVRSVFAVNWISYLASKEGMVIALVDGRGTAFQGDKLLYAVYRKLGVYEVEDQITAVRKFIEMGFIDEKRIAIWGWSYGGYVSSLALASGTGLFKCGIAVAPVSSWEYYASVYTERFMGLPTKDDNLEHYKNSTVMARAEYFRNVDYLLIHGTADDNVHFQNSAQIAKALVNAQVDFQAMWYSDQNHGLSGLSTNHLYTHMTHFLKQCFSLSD

[4] = target: TNF-alpha (human); remark: listed apart in the source
[5] = target: T2, FAP; remark: listed apart in the source
[6] = target: TNF-alpha (human); remark: listed apart in the source

Row | Binder | Kd [1] [nM] | Kd [2] [nM] | Kd [3] [nM] | Kd [4] [nM] | Kd [5] [nM] | Kd [6] [nM]
1 | B1 | 16.5 | 101 |  |  |  | 
2 | B2 |  |  | 2.19 | 25.7 | 13.1 | 20.5
